The record followed here is CN112646029A.

The target of this assay is T1, mBDNF (成熟脑源性神经营养因子, mature brain-derived neurotrophic factor) (Helarctos malayanus (Malayan sun bear) (Ursus malayanus)) (UniProt O18753).
T1 sequence: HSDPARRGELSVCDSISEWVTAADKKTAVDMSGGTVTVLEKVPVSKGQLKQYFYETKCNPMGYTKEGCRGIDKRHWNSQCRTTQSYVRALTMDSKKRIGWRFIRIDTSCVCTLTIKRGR
Description: ELISA; antigen coated on the plate, purified antibody added, secondary antibody, TMB, OD450. On the technique in general: ELISA stands for enzyme-linked immunosorbent assay.

B1: 抗mBDNF抗体 (anti-mature brain-derived neurotrophic factor antibody) (antibody, V domains shown)
VH: EVKLEESGGGLVQPGGSMKLSCVASGFTFNNYWMNWVRQSPGKGLEWVAQIRLDSDNYATHYAESVIGRFTISSDDSKSSVYLQMNNLRAEDTGIYYCTAFDYAMDYWGQGTSVTVSS
VL: DIVMTQSHKFMSTSVGDRVSITCKASQDVGSAVAWYQQKPGQSPKLLIYWASTRHTGVPNRFTGSGSGTDFTLTISNVHSEDLADYFCQQYSSYPLTFGSRTKLEIK
B1 came in with a lowest antigen concentration at which the antigen was detected of 1.95 ng/mL.
